Patent US20140234868A1, “USE FOR GLYCOLIPOPROTEIN GINTONIN, ISOLATED AND IDENTIFIED FROM GINSENG, AS A NATURAL MEDICAL-PLANT DERIVED LIGAND” (KONKUK UNIVERSITY INDUSTRIAL COOPERATION CORP., priority 2011, published 2014)

Tests used:
[1] = test system: mutant NMDA receptor (S1308A); experiment: Gintonin-induced activation of mutant NMDA receptor S1308A in oocytes; assay type: cell-based; conditions: mutant S1308A (PKC phosphorylation site)
Method: Two-electrode voltage-clamp recordings were obtained from individual oocytes placed in a small Plexiglas net chamber (5 ml). Electrophysiological experiments were performed using microelectrodes filled with 3 M KCl (resistance of 0.2-0.7 MΩ) and an Oocyte Clamp amplifier (OC-725C; Warner Instrument, Hamden, Conn.). For physiological recordings of NMDA receptor activity, oocytes were first perfused with Mg^2+-free ND96 (mM: 96 NaOH, 2 KOH, 0.3 CaCl2, 5 HEPES pH 7.6 with methanesulfonic acid). Then, the oocytes were clamped at −60 mV holding potential, followed by recoding NMDA currents (induced by administering […]) (Zheng et al., J Neurosci. 17, 8676-8686, 1997; Chang and Kuo, J Neurosci. 28, 1546-1556, 2008).
Thus, it is understood that gintonin stimulates PKC to phosphorylate the NMDA receptor at a specific site (S1308), and thus that gintonin-induced NMDA receptor activation is associated with PKC activity.

[2] = biological target: T1, LPA6 receptor (Homo sapiens, UniProt P43657); experiment: Intracellular free Ca2+ (Fura-2AM) in LPA6-expressing B103 cells; assay type: cell-based
T1 construct: host or cells: B103 rat neuroblastoma cells
T1 sequence (P43657 1-344): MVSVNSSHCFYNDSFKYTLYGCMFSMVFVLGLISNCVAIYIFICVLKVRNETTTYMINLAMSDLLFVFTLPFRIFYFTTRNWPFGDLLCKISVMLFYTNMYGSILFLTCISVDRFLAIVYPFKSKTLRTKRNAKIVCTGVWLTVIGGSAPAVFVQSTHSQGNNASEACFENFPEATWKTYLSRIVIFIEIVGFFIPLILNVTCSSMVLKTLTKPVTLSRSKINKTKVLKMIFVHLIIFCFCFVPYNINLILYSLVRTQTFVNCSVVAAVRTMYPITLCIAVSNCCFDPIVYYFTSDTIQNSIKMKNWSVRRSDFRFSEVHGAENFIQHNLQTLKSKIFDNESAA
Source text: LPA family receptors are endogenous to cells of most organs. B103 rat neuroblastoma cells, known as LPA receptor-null cells (Valentine et al., Biochim Biophys Acta 1780. 597-605) were transiently transfected with a plasmid (vector) carrying one of genes coding for LPA1(edg-2), LPA2(edg-4), LPA3(edg-7), LPA4, LPA5 and LPA6 receptors or a plasmid carrying none of them (empty vector). Two or three days after transfection, the cells are suspended, and made permeable. Then, the permeable cells are treated with Fura-2AM, a fluorescent dye binding to calcium, and then with gintonin, followed by spectrofluorephotometry to examine whether gintonin induces an increase in intracellular free Ca^2+ level. […]

B1: gintonin: ginseng-derived glycolipoprotein; structural protein of ginseng major latex-like protein (MLP151) and ribonuclease-like storage proteins; crude gintonin used in tests (protein)
chain 1: MGLTGKLICQTGIKSDGDVFHELFGTRPHHVPNITPANIQGCDLHEGEFGKVGSVVIWNYSIDGNAMIAKEEIVAIDEEDKSVTFKVVEGHLFEEFKSIVFSVHVDTKGEDNLVTWSIDYEKLNESVKDPTSYLDFLLSVTRDIEAHHLPK
chain 2: RSDYPWAMFALRLQWPAGFCEVNNACDTKSLLNTFTIHGLYPYNAKGTPALYCDGTAFDVNSVSDFLAEMHLAWPSHETNTEDIQFWEHEWKKHGRCSEALLKQTDYFRTALAFRKAFDIVGLLNQEGIYPNNDLYRPKMIKEAIKKHLNAVPEIDFTKNENSEYVLTDINVCVNQQATRFVDCPTDDATDDYRLKFVRLPSKMKFADPRTNSII
gintonin-induced NMDA receptor activation [1]: a low level of gintonin-induced NMDA receptor activation
gintonin activity on intracellular calcium level [2]: No gintonin activity was detected
